Numbering of substitutions follows the chain as printed. Names and notes keep the numbering of the source. Values belong to the binder of their own block, whether it stands above or below them.
Legend:
[1] = target: T1, canine FcRn complex (FcRn-α subunit and β-microglobulin) (canine, UniProt A0A8I3PFR8 25-347, biotin on the BAP tag by BirA (Example 5 only)); assay: SPR (Biacore), biotinylated FcRn on SA chip, IgG flowed, pH 7.4, 15 C
[2] = target: T1, canine FcRn complex (FcRn-α subunit and …); assay: SPR (Biacore), FcRn amine-coupled to CM5, IgG flowed, pH 6, 15 C
[3] = target: IL-31 (target protein of mAb1); assay: cell-based or functional assay
[4] = target: T1, canine FcRn complex (FcRn-α subunit and …); assay: SPR (Biacore), biotinylated FcRn on SA chip, IgG flowed, pH 6, 15 C
[5] = target: IL-31 (target protein of mAb1); assay: SPR (Biacore T200), target amine-coupled to CM5, antibody flowed, 15 C, 1:1 model
[6] = target: T1, canine FcRn complex (FcRn-α subunit and …); assay: SPR (Biacore), biotinylated FcRn on SA chip, IgG flowed, pH 6, 15 C; remark: listed apart in the source
[7] = target: T1, canine FcRn complex (FcRn-α subunit and …); assay: SPR (Biacore), FcRn amine-coupled to CM5, IgG flowed, pH 7.2, 15 C
[8] = target: NGF (target protein of mAb2); assay: cell-based or functional assay
[9] = target: canine FcRn complex (FcRn-α subunit and β-microglobulin) (canine); assay: SPR (Biacore), FcRn amine-coupled to CM5, IgG flowed, pH 6, 15 C
[10] = target: NGF (target protein of mAb2); assay: SPR (Biacore T200), target amine-coupled to CM5, antibody flowed, 15 C, 1:1 model
[11] = target: canine FcRn complex (FcRn-α subunit and β-microglobulin) (canine); assay: SPR (Biacore), FcRn amine-coupled to CM5, IgG flowed, pH 7.2, 15 C

T1 sequence (A0A8I3PFR8 entry or part of it, one chain of several): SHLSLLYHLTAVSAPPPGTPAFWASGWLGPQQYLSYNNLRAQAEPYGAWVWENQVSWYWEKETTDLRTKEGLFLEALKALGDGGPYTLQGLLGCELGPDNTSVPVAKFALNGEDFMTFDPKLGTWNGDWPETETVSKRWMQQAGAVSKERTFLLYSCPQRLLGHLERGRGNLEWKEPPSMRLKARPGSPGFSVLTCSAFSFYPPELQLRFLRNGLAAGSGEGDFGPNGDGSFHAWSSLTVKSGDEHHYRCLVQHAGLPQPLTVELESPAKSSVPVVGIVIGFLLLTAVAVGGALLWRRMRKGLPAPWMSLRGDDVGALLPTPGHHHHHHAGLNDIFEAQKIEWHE

Kd [1]: 18700 nM
Kd [2]: 15 to 24.4 nM
IC50 (cell based potency assay) [3]: 1.1 nM
Kd [4]: 19.9 nM
Kd [5]: 0.483 nM
B1: mAb1, caninized anti-IL31 antibody 34D03, canine IgGB (65), WT (antibody)
heavy: EVQLVESGGDLVKPGGSLRLSCVASGFTFSNYGMSWVRQAPGKGLQWVATISYGGSYTYYPDNIKGRFTISRDNAKNTLYLQMNSLRAEDTAMYYCVRGYGYDTMDYWGQGTLVTVSSASTTAPSVFPLAPSCGSTSGSTVALACLVSGYFPEPVTVSWNSGSLTSGVHTFPSVLQSSGLYSLSSMVTVPSSRWPSETFTCNVAHPASKTKVDKPVPKRENGRVPRPPDCPKCPAPEMLGGPSVFIFPPKPKDTLLIARTPEVTCVVVDLDPEDPEVQISWFVDGKQMQTAKTQPREEQFNGTYRVVSVLPIGHQDWLKGKQFTCKVNNKALPSPIERTISKARGQAHQPSVYVLPPSREELSKNTVSLTCLIKDFFPPDIDVEWQSNGQQEPESKYRTTPPQLDEDGSYFLYSKLSVDKSRWQRGDTFICAVMHEALHNHYTQESLSHSPGK
VL: EIVMTQSPASLSLSQEEKVTITCKASQSVSFAGTGLMHWYQQKPGQAPKLLIYRASNLEAGVPSRFSGSGSGTDFSFTISSLEPEDVAVYYCQQSREYPWTFGQGTKLEIK
notes: VH/VL: the caninized 34D03 entries of the listing; also called mAb1 WT; mAb1 Wild-Type

Kd [2]: 0.7 to 1.3 nM
IC50 (cell based potency assay) [3]: 0.99 nM
Kd [6]: 6.45 nM
Kd [7]: 5000 nM
Kd [5]: 0.373 nM
B2: mAb1, caninized anti-IL31 antibody 34D03, canine IgGB (65), N434H (antibody)
heavy: B1 heavy with N440H
VL: B1 VL
notes: VH/VL: the caninized 34D03 entries of the listing; also called mAb1 N434H; mAb1 N434H Mutant

IC50 (cell based potency assay) [8]: 23.7 nM
Kd [9]: 57.2 nM
Kd [10]: 0.0851 nM
B3: mAb2 of Tables 1-3, caninized anti-NGF antibody, canine IgGB (65), WT (antibody, part only; not given: Anti-NGF heavy and light variable domains, part only)
heavy, part: ASTTAPSVFPLAPSCGSTSGSTVALACLVSGYFPEPVTVSWNSGSLTSGVHTFPSVLQSSGLYSLSSMVTVPSSRWPSETFTCNVAHPASKTKVDKPVPKRENGRVPRPPDCPKCPAPEMLGGPSVFIFPPKPKDTLLIARTPEVTCVVVDLDPEDPEVQISWFVDGKQMQTAKTQPREEQFNGTYRVVSVLPIGHQDWLKGKQFTCKVNNKALPSPIERTISKARGQAHQPSVYVLPPSREELSKNTVSLTCLIKDFFPPDIDVEWQSNGQQEPESKYRTTPPQLDEDGSYFLYSKLSVDKSRWQRGDTFICAVMHEALHNHYTQESLSHSPGK

Kd [11]: 1300 nM
IC50 (cell based potency assay) [8]: 20.9 nM
Kd [9]: 7.3 nM
Kd [10]: 0.0555 nM
B4: mAb2 of Tables 1-3, caninized anti-NGF antibody, canine IgGB (65), N434H (antibody, part only; not given: Anti-NGF heavy and light variable domains, part only)
heavy, part: B3 heavy, part with N322H

— patent US20260193342A1 (ZOETIS SERVICES, published 2026)
